Columns and labels:
human CXCL13 [1] = biological target: T1, human CXCL13 (human, UniProt O43927 23-109); assay: ELISA binding, Fab
T1 construct: also called huCXCL13; rhCXCL13
T1 sequence (looked up): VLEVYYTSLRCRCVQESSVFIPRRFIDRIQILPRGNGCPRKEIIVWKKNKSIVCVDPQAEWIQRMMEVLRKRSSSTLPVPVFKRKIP

human CXCL13 [2] = biological target: T1, human CXCL13; assay: cell-based blocking assay, CXCL13 to CXCR5 cells
Summary of the method: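 To obtain IC50, a titration of humanized Fabs was tested against human CXCL13 binding to CHO-K1 cells expressing CXCR5. The cells (5×10⁴/well) were plated overnight at 37° C, fixed with 2% PFA and blocked with 1% BSA in PBST, then given 100 μl of Fab mixed with an equal volume of 0.3 μg/ml CXCL13 after a 30 min pre-incubation at room temperature. After 30 min on the cells and three PBST washes, bound CXCL13 was captured with 3 μg/ml human anti-CXCL13 antibody, detected with anti-human Fc-HRP and read at 450 nm.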

human CXCL13 [3] = biological target: T1, human CXCL13; assay: SPR Biacore 8K, Fab over immobilised CXCL13
Procedure: Among all humanized Fab samples, 71F4A3-VH2VL1, 71F4A3-VH1VL1 (Hz71F4), 71F4A3-VH1VL2, 71F4A3-VH3VL1, 411A11E9-VH1VL4, 411A11E9-VH3VL4, 411A11E9-VH2VL4, 411A11E9-VH3VL2, 411A11E9-VH1VL2, 21H12D9-VH1VL1, 21H12D9-VH2VL2, 21H12D9-VH3VL3, 21H12D9-VH1VL2, 64C10G1-VH1VL3, 64C10G1-VH1VL4, 64C10G1-VH1VL1, 64C10G1-VH1VL2 were selected to test affinity by Biacore 8K. 10 mM HEPES, 150 mM NaCl, 3 mM EDTA, 0.05% Tween-20, pH 7.4 served as running buffer and 10 mM glycine-HCl, pH2.0 served as regeneration buffer. CXCL13 protein were immobilized on Sensor Chip CM5 using amine coupling method (immobilization level ˜250RU). The serial concentrations of Fab (0-20 nM) were injected over immobilized CXCL13 at the flow rate of 30 μl/min. The dissociation phases were 600s.

human CXCL13 [4] = biological target: T1, human CXCL13; assay: SPR Biacore, off-rate ranking of Fabs
human CXCL13 [5] = biological target: T1, human CXCL13; assay: SPR Biacore 8K, Fab over immobilised CXCL13; remark: listed apart in the source
Procedure: HuCXCL13 binding affinity by Surface Plasmon Resonance. 411A11E9, 415A3D1, 64C10G1, 21H12D9, 329F2E1, 71F4A3 were selected to produce Fab and tested binding affinity. The binding of the antibodies to huCXCL13 was examined by Biacore 8K. 10 mM HEPES, 150 mM NaCl, 3 mM EDTA, 0.05% Tween-20, pH 7.4 served as running buffer and 10 mM glycine-HCl, pH2.0 served as regeneration buffer. CXCL13 protein was immobilized on Sensor Chip CM5 using amine coupling method (immobilization level ˜30RU). The serial concentrations of Fab (0-16 nM) were injected over immobilized CXCL13 at the flow rate of 30 μl/min. The dissociation phases were 600s.

human CXCL13 [6] = biological target: T1, human CXCL13; assay: cell-based blocking ELISA, CXCL13 to CHO-K1-CXCR5
Procedure: This example tested the blocking of the anti-CXCL13 chimeric antibodies to CHO-K1-CXCR5 cells. Briefly, 5×10⁴ CHO-K1-CXCR5 cells were plated in 96-well plate with 100 μl of culture medium and incubated at 37° C. overnight. Cells were fixed with 100 μl of 2% PFA at RT for 1 hr after washing with PBS for 1 time. Samples were blocked with 1% BSA in PBST for 1 hr at RT. Antibodies were serial diluted from 50 μg/ml by 3-fold with 1% BSA/PBST and pre-incubated with equal volume of 0.3 μg/ml human CXCL13 for 30 min at RT. 100 μl of antibody-antigen complex was transferred into each cell wells for 30 min at RT. Samples were washed with 1×PBST for 3 times and 100 μl of 3 μg/ml of human Mab5261 antibody was added into each well to capture human CXCL13 and anti-human Fc-HRP was used to indirectly detect human CXCL13 when it bound to CHO-K1-CXCR5 cells.
Then read at 450 nm. […] Among all clones, 415A3D1, 64C10G1, 1H3A11, 414D10F5, 411A11E9, 21H12D9, 71F4A3, 329F2E1 show completely blocking activity and 408E3F3, 19H7E10, 339A6E7 appeared to be partial blockers.

Row | Binder | EC50 (human CXCL13 [1]) | IC50 (human CXCL13 [2]) | Kd (human CXCL13 [3]) | koff (human CXCL13 [3]) | kon (human CXCL13 [3]) | Kd (human CXCL13 [4]) | koff (human CXCL13 [4]) | kon (human CXCL13 [4]) | Kd (human CXCL13 [5]) | koff (human CXCL13 [5]) | kon (human CXCL13 [5]) | IC50 (human CXCL13 [6])
1 | 64C10G1-VH1VL3 (Fab, V domains shown, Humanized Fab, human gamma 1 and kappa constant domains; also called 64C10G1-VH1VL3(Fab)) VH: EVQLVESGGGLVQPGGSLRLSCAASGFTFSSYAMSWVRQAPGKGLEWVATISDGGSDAYYPDNVKGRFTISRDNAKNSLYLQMNSLRAEDTAVYYCARDYYGSGYEDSPMDYWGQGTLVTVSS VL: DIQMTQSPSSLSASVGDRVTITCKASQDINKYIAWYQQKPGKAPKLLIHYTSTLQPGIPSRFSGSGSGTDFTFTISSLQPEDFATYYCLQYDNLYTFGGGTKLEIK | 1.07 nM | 7.69 nM | 2.98 nM | 0.00543 s⁻¹ | 1.82e+06 M⁻¹ s⁻¹ | 2.98 nM | 0.00543 s⁻¹ | 1.82e+06 M⁻¹ s⁻¹ | – | – | – | –
2 | 64C10G1-VH1VL1 (Fab, V domains shown, Humanized Fab, human gamma 1 and kappa constant domains; also called 64C10G1-VH1VL1(Fab)) VH: EVQLVESGGGLVQPGGSLRLSCAASGFTFSSYAMSWVRQAPGKGLEWVATISDGGSDAYYPDNVKGRFTISRDNAKNSLYLQMNSLRAEDTAVYYCARDYYGSGYEDSPMDYWGQGTLVTVSS VL: DIQMTQSPSSLSASVGDRVTITCKASQDINKYIAWYQQKPGKAPKLLIYYTSTLQPGVPSRFSGSGSGTDFTFTISSLQPEDIATYYCLQYDNLYTFGGGTKLEIK | 1.29 nM | 7.79 nM | 5.89 nM | 0.0255 s⁻¹ | 4.33e+06 M⁻¹ s⁻¹ | 5.89 nM | 0.0255 s⁻¹ | 4.33e+06 M⁻¹ s⁻¹ | – | – | – | –
3 | 64C10G1-VH1VL2 (Fab, V domains shown, Humanized Fab, human gamma 1 and kappa constant domains; also called 64C10G1-VH1VL2(Fab)) VH: EVQLVESGGGLVQPGGSLRLSCAASGFTFSSYAMSWVRQAPGKGLEWVATISDGGSDAYYPDNVKGRFTISRDNAKNSLYLQMNSLRAEDTAVYYCARDYYGSGYEDSPMDYWGQGTLVTVSS VL: DIQMTQSPSSLSASVGDRVTITCKASQDINKYIAWYQQKPGKAPKLLIHYTSTLQPGVPSRFSGSGSGTDFTFTISSLQPEDFATYYCLQYDNLYTFGGGTKLEIK | 1.23 nM | 7.02 nM | 1.92 nM | 0.00515 s⁻¹ | 2.69e+06 M⁻¹ s⁻¹ | 1.92 nM | 0.00515 s⁻¹ | 2.69e+06 M⁻¹ s⁻¹ | – | – | – | –
4 | 64C10G1-VH1VL4 (Fab, V domains shown, Humanized Fab, human gamma 1 and kappa constant domains; also called 64C10G1-VH1VL4(Fab)) VH: EVQLVESGGGLVQPGGSLRLSCAASGFTFSSYAMSWVRQAPGKGLEWVATISDGGSDAYYPDNVKGRFTISRDNAKNSLYLQMNSLRAEDTAVYYCARDYYGSGYEDSPMDYWGQGTLVTVSS VL: DIQMTQSPSSLSASVGDRVTITCKASQDINKYIAWYQQKPGKAPKLLIHYTSTLQPGIPSRFSGSGSGTDYTFTISSLQPEDFATYYCLQYDNLYTFGGGTKLEIK | 0.784 nM | 6.88 nM | 3.68 nM | 0.00713 s⁻¹ | 1.94e+06 M⁻¹ s⁻¹ | 3.68 nM | 0.00713 s⁻¹ | 1.94e+06 M⁻¹ s⁻¹ | – | – | – | –
5 | 21H12D9 chimeric Fab (Fab, V domains shown, Fab; also called 21VH12D9-Chimeric) VH: EVQLQQSGPVLVRPGASVKMSCKASGYTFTDYYMNWVKQSHGKSLEWIGVINPNNGGTTYKEKFKGKATLTVDKSSGTAYMELNSLTSEDSAVYYCARDDYDAGYWGQGTTLTVSS VL: DIVMTQFQKFMSTTVGDRVSITCKASQNVDTAVAWYQHKPGQSPKLLIYSASHRYTGVPDRFTGSGSGTDFTLTISNVQSEDLADYFCQQYTDFPLTFGAGTKLELK | – | – | 1.42 nM | 0.00258 s⁻¹ | 1.82e+06 M⁻¹ s⁻¹ | 1.18 nM | 0.00139 s⁻¹ | 1.17e+06 M⁻¹ s⁻¹ | 0.341 nM | 0.000731 s⁻¹ | 2.14e+06 M⁻¹ s⁻¹ | –
6 | 71F4A3-VH1VL1 (Hz71F4) Fab (Fab, V domains shown, Humanized Fab, human gamma 1 and kappa constant domains) VH: EVQLVESGGGLVQPGGSLRLSCAASGIDFSRYWMSWVRQAPGKGLEWVAEINPDSSTINYAPSLKDRFTISRDNAKNSLYLQMNSLRAEDTAVYYCARQDDYEYYAMDYWGQGTTVTVSS VL: DIQMTQSPSSLSASVGDRVTITCKASQDVNTGVAWYQQKPGKAPKLLIYSASYRYTGVPSRFSGSGSGTDFTFTISSLQPEDIATYYCQQYYSTPLTFGGGTKLEIK | 0.974 nM | 11.2 nM | 0.619 nM | 0.00125 s⁻¹ | 2.02e+06 M⁻¹ s⁻¹ | 0.426 nM | 0.00136 s⁻¹ | 3.2e+06 M⁻¹ s⁻¹ | – | – | – | –
7 | 71F4A3-VH2VL1 (Fab, V domains shown, Humanized Fab, human gamma 1 and kappa constant domains) VH: EVQLVQSGGGLVQPGGSLRLSCAASGIDFSRYWMSWVRQAPGKGLEWVAEINPDSSTINYAPSLKDRFTISRDNAKNSLYLQMNSLRAEDTAVYYCARQDDYEYYAMDYWGQGTTVTVSS VL: DIQMTQSPSSLSASVGDRVTITCKASQDVNTGVAWYQQKPGKAPKLLIYSASYRYTGVPSRFSGSGSGTDFTFTISSLQPEDIATYYCQQYYSTPLTFGGGTKLEIK | 0.819 nM | 10.5 nM | 0.853 nM | 0.00145 s⁻¹ | 1.7e+06 M⁻¹ s⁻¹ | 0.554 nM | 0.00108 s⁻¹ | 1.95e+06 M⁻¹ s⁻¹ | – | – | – | –
8 | 71F4A3-VH1VL2 (Fab, V domains shown, Humanized Fab, human gamma 1 and kappa constant domains) VH: EVQLVESGGGLVQPGGSLRLSCAASGIDFSRYWMSWVRQAPGKGLEWVAEINPDSSTINYAPSLKDRFTISRDNAKNSLYLQMNSLRAEDTAVYYCARQDDYEYYAMDYWGQGTTVTVSS VL: DIQMTQSPSSLSASVGDRVTITCKASQDVNTGVAWYQQKPGKAPKLLIYSASYRYTGVPSRFSGSGSGTDFTFTISSVQPEDIATYYCQQYYSTPLTFGGGTKLEIK | 1.18 nM | 10.7 nM | 0.628 nM | 0.00116 s⁻¹ | 1.84e+06 M⁻¹ s⁻¹ | 0.516 nM | 0.00147 s⁻¹ | 2.85e+06 M⁻¹ s⁻¹ | – | – | – | –
9 | 408E3F3 chimeric human IgG1 antibody (antibody, V domains shown, Chimeric human IgG1) VH: HVTLRESGPGVLQPSKTLSLTCSFSGFSLSTSAMVVSWIRQSSGMSLEWLAAIDWEGDKYYNPSLESRLTVSRDISDTQVFLRITSVDVADTATYYCAVMSSADSHSVLDAWGQGVSVTVSS VL: DIKMTQSPSFLSASVGDRVTINCKASQNIHNYLNWYQQKFGEAPRLLIYNTNNLQTGIPSRFSGSGSGTDFTLTISSLQPEDVATYFCLQHSSSLTFGSGTKLEIN | – | – | – | – | – | – | – | – | – | – | – | 7.64 µg/mL
10 | 19H7E10 chimeric human IgG1 antibody (antibody, V domains shown, Chimeric human IgG1) VH: EVQLQQSGPELVKPGASVKISCQASGYAFSDYYMNWVKQSHGKRLEWIGDINPNNDGTTYNQKFKDKATLTVDKSSSTAYMDLRSLTSEDSAVYYCARLSWSFFAMDYWGQGTSVTVSS VL: DIVMTQSHKFMSTSVGDRVSITCKASQDVSSGVAWYQQKPGQSPKVLIYSASHRHTGVPDRFTASGSGTDFTFTISSVQAEDLAVYYCQQYYNTPWTFGGGTKLEIK | – | – | – | – | – | – | – | – | – | – | – | 15.1 µg/mL
11 | 411A11E9 chimeric Fab (Fab, V domains shown, Fab) VH: EVQLVESGGGLVQPGGSLKLSCVVSGFTFSDYYMAWVRQTPTKGLEWVASINYDGGDTYYRDSVKGRFTVSRNNAKSSLFLQMDSLRSEDTATYYCKTEEDYDGSYVMDAWGQGASVIVSS VL: DIQMTQSPSFLSASVGDRVTISCKASQNINKELTWYQQKLGKAPKRLIYNTNILQTGIPSRFSGSGSNTDYTLTISSLQPEDFATYFCLQQSSLYTFGAGTKLELK | – | – | 0.74 nM | 0.00156 s⁻¹ | 2.11e+06 M⁻¹ s⁻¹ | 0.708 nM | 0.00287 s⁻¹ | 4.05e+06 M⁻¹ s⁻¹ | 0.158 nM | 0.000326 s⁻¹ | 2.06e+06 M⁻¹ s⁻¹ | –

— patent US20210284724A1 (I MAB BIOPHARMA US, published 2021)
